Measured values from patent US7482329B2, “Single domain TDF-related compounds and analogs thereof” (Thrasos Therapeutics, priority 2002, dated 2009).
“Also recorded” adds a separate entry of the source. Where a SMILES comes first, the peptide text is derived from it.

T1: BMPR-2 receptor extra cellular domain (Homo sapiens, UniProt Q13873)
T1 construct: immobilized BMPR-2 receptor extra cellular domain (ECD)
T1 sequence (Q13873 27-150 limits assumed): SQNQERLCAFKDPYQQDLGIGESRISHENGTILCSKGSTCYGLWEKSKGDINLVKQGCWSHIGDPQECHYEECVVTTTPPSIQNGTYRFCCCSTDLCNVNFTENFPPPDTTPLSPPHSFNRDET

B1: TDF-1: TDF-1 (BMP-7 or OP-1), bone morphogenetic protein-7; unlabeled control ligand in the binding and cell assays (protein)
chain: STGSKQRSQNRSKTPKNQEALRMANVAENSSSDQRQACKKHELYVSFRDLGWQDWIIAPEGYAAYYCEGECAFPLNSYMNATNHAIVQTLVHFINPETVPKPCCAPTQLNAISVLYFDDSSNVILKKYRNMVVRACGCH

Legend:
[1] = molecular target: T1, BMPR-2 receptor extra cellular domain; test: Radio-ligand receptor binding assay, competition with 125I-labeled TDF-1 for BMPR-2
Text: (§1) General protocol: These assays are based on competition between ^125I-labeled TDF-1 (BMP-7 or OP-1) and candidate TDFRP compounds or unlabeled TDF-1 for binding to respective receptors (ALK-3, ALK-6 or BMPR-2). In brief, the procedure involves immobilization of receptor on 96 well Removawell plates, blocking the wells with 3% BSA in PBS and subsequently washing the wells. Increasing concentrations of unlabeled TDF-1 or TDFRP compounds or control (unlabeled TDF-1) prepared in binding buffer are then added. Incubate plate for 1 hour at room temperature, and then add a fixed amount of ^125I-labeled TDF-1 (250,000 to 350,000 cpm) to the wells and further incubate in cold (4° C.) for 20 hours. Aspirate the contents of the wells and wash the wells four times with a wash buffer, and count the receptor bound ^125I-labeled TDF-1 in an auto gamma counter. B. HK-2 Cell Culture and Determination of Cytokine Production

[2] = tested on: ICAM-1 in HK2 human transformed kidney proximal tubule cells; test: ICAM-1 level in HK-2 cell medium after TNF-alpha stimulation (ELISA); format: cell-based; conditions: FIG. 7; for effect on level of ICAM-1 in HK2 cell medium: after TNF-alpha inflammatory stimulation
Protocol: The immortalized PTEC-derived HK-2 (Human Kidney-2) cells (ATCC number CRL-2190) were grown in serum-free keratinocyte medium (GIBCO number 17005-042) supplemented with epidermal growth factor (EGF: 5 ng/mL) and bovine pituitary extract (40 ug/mL) for 48 hours as described previously (Ryan et al (1994) Kidney International 45:48-57). Cells were transferred to 24-well plates at a density of 3×10^5 cells per well. After 24 hours, cells were incubated with fresh medium containing TNF-alpha (5 ng/mL) for 20 hours. Controls received medium alone. Then cells were washed twice with fresh culture medium and further incubated with culture medium alone (medium control, and TNF control wells) or TDF-1 at three different concentrations (40, 200 or 1000 ng/mL) or TDFRP compounds at three different concentrations (4, 20 or 100 uM) for sixty hours. During incubation, cells were kept in a 5% CO2 humid atmosphere at 37° C. At the end of the incubation, the media were removed and stored frozen until assayed. The concentrations of IL-6 and sICAM-in culture supernatants were measured by specific ELISA.
Dilute the capture antibody to the working concentration in PBS, pH 7.4 without carrier protein. Add 61 uL of stock antibody (720 ug/mL) to 10.939 mL of PBS, gently vertex. Immediately coat a 96 well microplate (Immulon 4 HBX) with 100 uL per well of the diluted capture antibody. Seal the plate and incubate it overnight in cold (4° C.). (PBS: 8.1 mM Na2HPO4, 1.5 mM KH2PO4, 137 mM NaCl, 2.7 mM KCl, pH 7.4, 0.2 um filtered).
Next day empty the wells and wash the wells three times, each time using 340 uL of wash buffer per well. (wash buffer: PBS, pH 7.4 containing 0.05% Tween-20). Prepare blocking buffer, 35 mL per plate. To prepare blocking buffer, add 0.35 grams of BSA and 1.75 grams of sucrose to 35 mL of PBS, pH 7.4, and mix the contents gently. Add 300 uL of blocking buffer to each well and incubate the plate for a minimum of 1 hour at room temperature. Empty the wells and wash wells three times, each time using 340 uL of wash buffer per well. […]

[3] = molecular target: T2, BMPR-1A (ALK3) receptor extra cellular domain (Homo sapiens, UniProt P36894); test: Radio-ligand receptor binding assay, competition with 125I-labeled TDF-1 for ALK-3; conditions: FIG. 1; cold ligand vs 125I-labeled TDF-1; read-out: ED50, displacing labeled TDF-1 from immobilized BMPR-1A receptor ECD
T2 construct: immobilized BMPR-1A receptor extra cellular domain (ECD)
Text: as §1

[4] = tested on: end stage renal failure in a remnant kidney; conditions: rats, administered systemically, remnant kidney (5/6 nephrectomy); cited from earlier work
[5] = tested on: unilateral ureteral obstruction; conditions: rats, administered systemically, UUO; cited from earlier work

T2 sequence (P36894 24-152 limits assumed, species assumed): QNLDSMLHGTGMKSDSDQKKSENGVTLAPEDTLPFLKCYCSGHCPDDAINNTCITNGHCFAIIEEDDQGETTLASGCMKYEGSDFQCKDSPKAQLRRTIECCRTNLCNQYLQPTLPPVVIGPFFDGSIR

Molecule	specific binding to BMPR-2 / inhibition of specific binding of labeled TDF-1 to BMPR-2 receptor ([1]; competitive binding, FIG. 4)	EC50 ([2]; HK2 cells, TNF-alpha stimulus, read-out: ED50, lowering of ICAM-1 level) [µM]	effect on level of ICAM-1 in HK2 cell medium [2]	EC50 [3] [nM]	EC50 ([1]; FIG. 3, read-out: ED50, displacing labeled TDF-1 from immobilized BMPR-2 receptor ECD) [nM]	progression of end stage renal failure [4]	prophylaxis in unilateral ureteral obstruction [5]
CC(C)C[C@H](NC(=O)[C@@H](NC(=O)[C@H](CC(N)=O)NC(=O)[C@H](CO)NC(=O)[C@H](CO)NC(=O)[C@H](CC(=O)O)NC(=O)[C@H](CC(=O)O)NC(=O)[C@H](Cc1ccccc1)NC(=O)[C@H](Cc1ccc(O)cc1)NC(=O)[C@@H](N)CS)C(C)C)C(=O)N[C@@H](CS)C(=O)N[C@@H](CCCCN)C(=O)N[C@@H](CCCCN)C(=O)N[C@@H](Cc1ccc(O)cc1)C(=O)N[C@@H](CCCNC(=N)N)C(=O)N[C@@H](CO)C(=O)O [SEQ ID NO:45, CYFDDSSNVLCKKYRS] (H-CYFDDSSNVLCKKYRS-OH)	specifically binds and does	< 4	reduces the level of cellular inflammation marker ICAM-1; also recorded: lowers the level of ICAM-1 in a dose dependent manner				
B1			lowers the level of ICAM-1 in a dose dependent manner	6.5	6.3	halts the progression of end stage renal failure	short term prophylaxis
